Experiment [1] has as its target T1, recombinant human IL-17A (SEQ ID NO: 78) (human, UniProt Q16552 24-155, limits assumed).
T1 construct: homodimer; also called huIL-17A; hulL-17A
T1 sequence: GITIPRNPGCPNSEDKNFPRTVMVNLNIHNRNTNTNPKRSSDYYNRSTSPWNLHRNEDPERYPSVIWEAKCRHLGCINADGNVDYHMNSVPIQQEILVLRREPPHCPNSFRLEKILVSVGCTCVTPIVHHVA
Nature of the experiment: SPR (Biacore), captured antibody, antigen as analyte.

The target of experiment [2] is T2, human IL-17A (construct not stated) (human, UniProt Q16552 24-155, limits assumed).
T2 sequence: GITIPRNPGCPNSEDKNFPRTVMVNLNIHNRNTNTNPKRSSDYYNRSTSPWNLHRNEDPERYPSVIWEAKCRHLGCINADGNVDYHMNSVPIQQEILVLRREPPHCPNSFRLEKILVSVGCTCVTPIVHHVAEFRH
Nature of the experiment: cell-based or functional assay.

Experiment [3] deals with T3, recombinant human IL-17A (SEQ ID NO: 76) (human, UniProt Q16552 24-155, limits assumed).
T3 sequence: T2 sequence
Nature of the experiment: cell-based or functional assay.

For experiment [4], the target named is T4, recombinant mouse IL-17A (SEQ ID NO: 83) (mouse, UniProt Q62386 26-158).
T4 sequence: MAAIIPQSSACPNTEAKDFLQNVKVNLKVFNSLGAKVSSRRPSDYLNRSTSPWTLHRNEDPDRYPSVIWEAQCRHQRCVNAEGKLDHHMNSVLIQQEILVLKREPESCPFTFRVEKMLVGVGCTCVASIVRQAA
Nature of the experiment: cell-based or functional assay.

Experiment [5] addresses T3, recombinant human IL-17A (SEQ ID NO: 76). Nature of the experiment: cell-based or functional assay. This is another data set of the same source.
Experiment [6] concerns the target T5, recombinant rat IL-17A (SEQ ID NO: 85) (rat, UniProt Q61453 18-150).
T5 construct: also called rratIL-17A; rIL-17A
T5 sequence: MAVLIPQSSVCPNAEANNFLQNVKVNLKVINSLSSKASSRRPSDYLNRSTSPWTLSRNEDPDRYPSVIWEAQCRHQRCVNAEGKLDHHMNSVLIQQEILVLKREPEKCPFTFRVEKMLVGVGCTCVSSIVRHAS
Nature of the experiment: SPR (Biacore), captured antibody, antigen as analyte.

In experiment [7] the target is T6, recombinant cynomolgus IL-17A (SEQ ID NO: 79) (cynomolgus monkey, UniProt Q16552 24-155 (human entry), limits assumed).
T6 construct: also called cynoIL-17A; cyno IL-17A
T6 chain: T1 sequence with T3A, P8S, N34S, I77V, N78K, P104R
The description is as above.

For experiment [8], the target named is T7, recombinant human IL-17A/F heterodimer (human, UniProt Q16552 24-155; Q96PD4 31-163, limits assumed).
T7 construct: heterodimer of an IL-17A subunit and an IL-17F subunit; also called huIL-17A/F; rhuIL-17A/F
T7 sequence (looked up) 1: T1 sequence
T7 sequence (looked up) 2: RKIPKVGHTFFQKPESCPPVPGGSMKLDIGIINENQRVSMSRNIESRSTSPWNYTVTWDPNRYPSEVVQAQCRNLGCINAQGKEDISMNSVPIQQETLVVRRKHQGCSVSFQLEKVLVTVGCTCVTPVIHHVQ
The description is as above.

Experiment [9] addresses T1, recombinant human IL-17A (SEQ ID NO: 78). Described as above. This is another data set of the same source.
Experiment [10] has as its target T4, recombinant mouse IL-17A (SEQ ID NO: 83). The experiment is described as above.

Changes are numbered by the printed parent chain. In names and notes the source's numbering stands. Where two headings read alike, the source gives them in different places.

B1: XAB2 (antibody, human IgG1, kappa, V domains shown)
VH: EVQLVESGGDLVQPGGSLRLSCAASGFTFSSYWMSWVRQAPGKGLEWVANIKQDGSEKYYVDSVKGRFTISRDNAKNSLYLQMNSLRAEDTAVYYCARDRGSLYYWGQGTLVTVSS
VL: AIQLTQSPSSLSASVGDRVTITCRPSQVIISALAWYQQKPGKAPKLLIYDASSLEQGVPSRFSGSVSGTDFTLTISSLQPEDFATYYCQQFDSYPLTFGGGTKVEIKR
As for B1, in experiment [1], the Kd came out at 0.0176 nM, the dissociation rate constant (koff) came out at 7.12e-05 s⁻¹ and the kon worked out at 4.09e+06 M⁻¹ s⁻¹. In experiment [2], the “EC50, in vitro neutralization activity, T = 0 weeks” value (shortened to “EC50 … T = 0 weeks”) stood at 0.045 µg/mL and the “EC50, in vitro neutralization activity, T = 4 weeks at pH 8, 40°C (forced deamidation)” value (from here on “EC50 … (forced deamidation)”) worked out at 47 ng/ml. Also, the “IC50, huIL-6 secretion by BJ cells; stimulus rhuIL-17A (0.5 nM)” value (from here on “IC50, huIL-6 secretion by BJ cells”) in experiment [3] came out at 0.64 nM. The “IC50, KC secretion by CMT-93 cells; stimulus mIL-17A (0.15 nM)” value (“IC50, KC secretion by CMT-93 cells” for short) in experiment [4] was found to be 20.9 nM. In [5], the “IC50, huGROα secretion by BJ cells; stimulus rhuIL-17A (0.5 nM)” value (shortened to “IC50, huGROα secretion by BJ cells”) stood at 0.4 nM.

B2: XAB5 (antibody, human IgG1, kappa, V domains shown)
VH: B1 VH
VL: B1 VL with V28G, I30N, S31W, A32E, Q56N, V66G, D92N
With B2, in experiment [2], the “EC50 … T = 0 weeks” value amounted to 0.045 µg/mL and the “EC50 … (forced deamidation)” value turned out to be 61 ng/ml. Further, the “IC50, huIL-6 secretion by BJ cells” value in experiment [3] was found to be 0.54 nM. Also, the “IC50, KC secretion by CMT-93 cells” value in experiment [4] amounted to 7.8 nM. Further, the “IC50, huGROα secretion by BJ cells” value in [5] is 0.46 nM.

B3: XAB3 (antibody, human IgG1, kappa, V domains shown)
VH: B1 VH
VL: B1 VL with V28G, I30Y, S31W, A32E, V66G, D92N
notes: also called MB468 N56Q
For B3, the “EC50 … T = 0 weeks” value in [2] was determined as 0.04 µg/mL. The “EC50 … (forced deamidation)” value in experiment [2] came out at 40 ng/ml. The Kd was determined as 0.0826 nM in [6]; 0.0349 nM in experiment [7]; 0.0329 nM in experiment [8]; 0.00958 nM in experiment [9]; 0.174 nM in experiment [10]. The koff in experiment [6] is 7.59e-05 s⁻¹; in [7], 4.23e-05 s⁻¹; in experiment [8] it was 0.000103 s⁻¹; in experiment [9], 5.01e-05 s⁻¹; in experiment [10], 0.000101 s⁻¹. Besides, the kon in experiment [6] is 905000 M⁻¹ s⁻¹; in [7] it was 1.21e+06 M⁻¹ s⁻¹; in [8] it was 3.37e+06 M⁻¹ s⁻¹; in experiment [9], 5.48e+06 M⁻¹ s⁻¹; in experiment [10], 587000 M⁻¹ s⁻¹. The “IC50, huIL-6 secretion by BJ cells” value in experiment [3] is 0.5 nM. The “IC50, KC secretion by CMT-93 cells” value in experiment [4] was below 1 nM. Besides, the “IC50, huGROα secretion by BJ cells” value in [5] stood at 0.42 nM.

The record behind these values is US20180194839A1 (Novartis, published 2018).
